Laboratory results taken from patent US20260327301 (published 2026).
Positions count from the first letter of the chain named.

T1: canine IL-31 (dog)
T1 chain: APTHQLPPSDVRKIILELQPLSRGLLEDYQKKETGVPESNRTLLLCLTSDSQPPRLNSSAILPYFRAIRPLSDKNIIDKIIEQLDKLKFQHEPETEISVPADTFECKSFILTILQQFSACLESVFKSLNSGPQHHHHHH

B1: Caninized 35C9-1-H1L2 (antibody, V domains shown)
VH: EVQLVESGGDLVKPGGSLRLSCVASGFTFSSYWMSWVRQAPGKGLQWLSDIYATGSTYYANWATGRFTGSRDNAKNTLYLQMNSLTIEDTATYFCARHSSRSGIDFDLWGQGTLVTVSS
VL: EIVMTQSPASLSLSQEEKVTITCQASQSIGNYLAWYQQKPGQAPKQLIYRASTLASGVPSRFSGSGSGTDFTLTISDLECADVAVYYCQQGYDSNNVDNFFGQGTKVEIKR
B2: Caninized 35C9-1-H1L1 (antibody, V domains shown)
VH: B1 VH
VL: B1 VL with S63K, D70E
B3: Chimeric Antibody 35C9-1 (antibody, V domains shown)
VH: QSLEESGGRLVTPGTPLTLTCTASGFSLSSYWMSWVRQAPGKGLEWIGDIYATGSTYYANWATGRFTGSKTSTTVDLTITSPTIEDTATYFCARHSSRSGIDFDLWGQGTLVTVSS
VL: AYDMTQTPASVEAAVGGTVTIKCQASQSIGNYLAWYQQKPGQPPKQLIYRASTLASGVPSRFKGSGSGTEFTLTISDLECADGATYYCQQGYDSNNVDNFFGGGTEVVVRR
B4: 35C9-1 rabbit-derived (antibody, V domains shown)
VH: B3 VH
VL: AYDMTQTPASVEAAVGGTVTIKCQASQSIGNYLAWYQQKPGQPPKQLIYRASTLASGVPSRFKGSGSGTEFTLTISDLECADGATYYCQQGYDSNNVDNFFGGGTEVVVR
B5: 38E2-1 rabbit-derived (antibody, V domains shown)
VH: QSLEESGGRLVTPGTPLTLTCTASAFSLSGYYMGWVRQAPGKGLEYIGIIGGSSNTFYASWAKGRFTISKTPTTVDLKITSPTTEDTATYFCARHGDTDYISGTYFDLWGQGTLVTVSS
VL: AYHMTQTPASVEVPVGGTVTIKCQASQSISIYLAWYQQKPGQPPKLLIYRASTLASGVPSRFIGSGSGTEFSLTISDLECADAATYYCQQGYEDSNVESLFGGGTEVVVK
B6: Chimeric Antibody 38E2-1 (antibody, V domains shown)
VH: B5 VH
VL: AYHMTQTPASVEVPVGGTVTIKCQASQSISIYLAWYQQKPGQPPKLLIYRASTLASGVPSRFIGSGSGTEFSLTISDLECADAATYYCQQGYEDSNVESLFGGGTEVVVKR
B7: Chimeric Antibody 47C1-1 (antibody, V domains shown)
VH: QSVEESGGRLVTPGTPLTLTCTVSGFSLSTYAMNWVRQAPGKGLEWIGIIYSNGDGYYASWAKGRYTISKTSSTTVDLKVTSPTTEDTATYFCARGIYSQTTGYFNLWGQGTLVTVSS
VL: DIVMTQTPASVEAAVGGIVIIKCQASESIGNTLAWYQQKPGQPPKLLIYGASTLASGVSSRFKGSGSGTEVTLTISDLECADAATYYCQSYWSSTTTFRDTFGGGTEVVVKR
B8: 47C1-1 rabbit-derived (antibody, V domains shown)
VH: B7 VH
VL: DIVMTQTPASVEAAVGGIVIIKCQASESIGNTLAWYQQKPGQPPKLLIYGASTLASGVSSRFKGSGSGTEVTLTISDLECADAATYYCQSYWSSTTTFRDTFGGGTEVVVK
B9: Caninized 47C1-1-H3L3 (antibody, V domains shown)
VH: EVQLVESGGDLVKPGGSLRLSCVASGFSLSTYAMNWVRQAPGKGLEWISIIYSNGDGYYASWAKGRFTISRDNSKNTLYLQMNSLRAEDTAVYYCARGIYSQTTGYFNLWGQGTLVTVSS
VL: MDTRAPTQLLGLLLLWLPGARCEIVMTQTPASLSLSQEGKVTITCQASESIGNTLAWYQQKPGQPPKLLIYGASTLASGVPSRFSGSGSGTDFTFTINSLQPEDVATYYCQSYWSSTTTFRDTFGQGTKVEIKR
B10: Caninized 47C1-1-H2L2 (antibody, V domains shown)
VH: B9 VH with S74A
VL: B9 VL
B11: Caninized 38E2-1-H3L3 (antibody, V domains shown)
VH: EVQLVESGGDLVKPGGSLRLSCVASAFSLSGYYMGWVRQAPGKGLEWISIIGGSSNTFYASWAKGRFTISKDNSKNTLYLQMNSLRAEDTAVYFCARHGDTDYISGTYFDLWGQGTLVTVSS
VL: EIVMTQSPASLSLSQGEKVTITCQASQSISIYLAWYQQKPGQPPKLLIYRASTLASGVPSRFSGSGSGTDFSFTITSLQPEDVATYYCQQGYEDSNVESLFGQGTKVEIKR
B12: Caninized 38E2-1-H3L2 (antibody, V domains shown)
VH: B11 VH
VL: B11 VL with T76S
B13: 19D1-1 rabbit-derived (antibody, V domains shown)
VH: B3 VH with T53S, T56E, N60S, A62V, T63N, T78K
VL: B4 VL with G30S, I75M, G83A, F100L, R110K
B14: 18E8-1 rabbit-derived (antibody, V domains shown)
VH: B5 VH
VL: B5 VL with R50K
B15: 44B4-1 rabbit-derived (antibody, V domains shown)
VH: QSLEESGGRLVTPGTPLTLTCTASGFSLSNSYMGWVRQAPGKGLEYIGFIDTGGTTYYASWAKGRFTISRTSTTVDLKMTSPTTEDTATYFCAKGPDDYFFNLWGQGTLVTVSS
VL: DIVMTQTPASVEAAVGGTITINCQASESISSWLAWYQQKPGQPPKLLIYKASTLESGVPSRFKGSGSGTEFTLTISGVQCADAATYYCQVYYFSYNSYNFFGGGTEVVVK
B16: 19C7-1 rabbit-derived (antibody, V domains shown)
VH: QSVEESGGRLVTPGTPLTLTCTVSGFSLNSYAMGWVRQAPGKGLEYIGIINSSGSTWYATWVKGRFTISKTSTTVDLKMTSVTTEDTATYFCARNRDPFYITDMDLWGQGTLVTVSS
VL: QVLTQTPSSVSAAVGGTVTINCQASQNIYSYLSWYQQKPGQPPKLLIYRASTLASGVPSRFKGSGSGTEFTLTISGVECADAATYYCQQGDSYSDVDNIFGGGTEVVVK
B17: 5H4-2 rabbit-derived (antibody, V domains shown)
VH: QSLEESGGDLVKPGASLTLTCTASGFTLSSDYYMCWVRQAPGKGLELIACITTSTVGTWYASWAKGRFTISKTSSTTVTLQMTSLTAADTATYFCGREDGTYADYFNLWGPGTLVTVSS
VL: AYDMTQTPASVEVAVGGTVTIKCQASQSISSWLAWYQQKPGQRPKLLIYRASTLASGVSSRFKGSGSGTQFTLTISGVECADAATYYCQQGYRSSNLDNAFGGGTEVVVK
B18: 30A11-1 rabbit-derived (antibody, V domains shown)
VH: QEQLKESGGGLVTPGGTLTLTCTASGFTISGYYMNWVRQAPGKGLEWIGFIYSPSTTYYANWAKGRFTISKTSTTVDLKITSPTTEDTATYFCARGHTTEIRLDLWGQGTLVTVSS
VL: AVLTQTPSPVSAAVGGTVSISCQSSESVYKNNRLSWFQQKPGQPPKLLIFDASTLASGVSSRFKGSGSGTQFTLTISGVQCDDAATYYCLGEFRDSSDNSFGGGTEVVVK
B19: 30G5-1 rabbit-derived (antibody, V domains shown)
VH: QSLEESGGRLVTPGGSLTLTCTVSGFSLSSYAMIWVRQAPGEGLEWIGTIDPSDNTDYASWAKGRFTISKTSSTTVDLKLTSLTTEDTATYFCASHSYDDYGRDVWNLWGQGTLVTVSS
VL: IVMTQTPSSKSVPVGDTVTINCQASQSVDNNNDLSWYQQKPGQPPKLLIYYTSSLPSGVPSRFKGSGSGTQFTLTISDLECDDAATYYCVGYKSSTTDATAFGGGTEVMVK

Target: T1, canine IL-31
Experiment: BLI
B1 gave a Kd of 389 nM. With B2 the Kd was 495 nM. For B3, the Kd was 11.9 nM. With B4 the Kd was 12.7 nM. For B5, the Kd was 0.815 nM. B6 gave a Kd of 2.49 nM. B7 showed a Kd of 8.32 nM. Work on B8 yielded a Kd of 3.75 nM. Binder B9 has a Kd of 15.5 nM. In the case of B10, the Kd is reported as 15.1 nM. B11 showed a Kd of 5.35 nM. With B12 the Kd was 8.04 nM.

Target: T1, canine IL-31
Experiment: ELISA
In the case of B13, the EC50 is reported as 0.000196 µg/mL. Binder B4 has an EC50 of 0.0023 µg/mL. Binder B5 has an EC50 of 0.000915 µg/mL. B14 was tested, and the EC50 was 0.00195 µg/mL. Binder B8 has an EC50 of 0.00179 µg/mL. In the case of B15, the EC50 is reported as 0.000232 µg/mL. Binder B16 has an EC50 of 0.00321 µg/mL. Work on B17 yielded an EC50 of 0.000841 µg/mL. Work on B18 yielded an EC50 of 0.00282 µg/mL. In the case of B19, the EC50 is reported as 0.00208 µg/mL.

Target: T1, canine IL-31
Experiment: ELISA
Remark: another data set of the same source
For B1, the EC50 was 0.158 µg/mL. With B2 the EC50 was 0.19 µg/mL. For B3, the EC50 was 0.103 µg/mL. With B6 the EC50 was 0.0928 µg/mL. With B7 the EC50 was 0.102 µg/mL. With B9 the EC50 was 0.105 µg/mL. B10 showed an EC50 of 0.113 µg/mL. Binder B11 has an EC50 of 0.0934 µg/mL. Work on B12 yielded an EC50 of 0.0978 µg/mL.

Target: T1, canine IL-31
Experiment: BLI
Remark: another data set of the same source
B13 showed a Kd of 43.3 nM. B4 gave a Kd of 12.7 nM. B5 gave a Kd of 2.55 nM. In the case of B8, the Kd is reported as 3.75 nM. Work on B17 yielded a Kd of 113 nM.

Target: T1, canine IL-31
Experiment: BLI
Remark: another data set of the same source
B3 gave a Kd of 11.9 nM. B4 was tested, and the Kd was 12.7 nM. With B5 the Kd was 0.815 nM. Work on B6 yielded a Kd of 2.49 nM. For B7, the Kd was 8.32 nM. Work on B8 yielded a Kd of 3.75 nM.

Target: T1, canine IL-31
Experiment: ELISA
Remark: another data set of the same source
Work on B3 yielded an EC50 of 0.105 µg/mL. B6 gave an EC50 of 0.094 µg/mL. With B7 the EC50 was 0.0985 µg/mL.
